Measurements: patent US20250388688A1 (ETHYREAL BIO, published 2025)
Where a chain is given by its changes, count along the chain named.

B1: parental TSHR-binding antibody (antibody, V domains shown)
VH: EVQLVQSGAEVKKPGQSLKISCKASGYSLTDNWIGWVRQKPGKGLEWMGIIYPGDSDTRYSPSFQGQVTISADKSINTAYLQWSSLKASDTAIYYCVGLDWNYNPLRYWGPGTLVTVSS
VL: QSVLTQPPSVSAAPGQKVTISCSGSSSDIGSNYVSWYQQFPGTAPKLLIYDNNKRPSAIPDRFSGSKSGTSATLGITGLQTGDEADYYCGTWDSRLGIAVFGGGTQLTVL
notes: it has a human Fc (captured on anti-human Fc, detected with anti-human IgG Fc); also called parental antibody; parental anti-TSHR antibody
B2: TSHB-12 (antibody, V domains shown)
VH: EVQLVQSGAEVKKPGASVKVSCKASGYSLTDNWIGWVRQAPGQGLEWMGIIYPGDSDTRYAQKFQGRVTMTADKSTSTVYMELSSLRSEDTAVYYCVGLDWNYNPLRYWGQGTLVTVSS
VL: B1 VL
B3: TSHB-18 (antibody, V domains shown)
VH: B1 VH
VL: B1 VL with S27T, F40L, A58G
B4: TSHB-7 (antibody, V domains shown)
VH: B1 VH with Q16E, T30K, N77S, P111Q
VL: B1 VL
B5: TSHB-15 (antibody, V domains shown)
VH: B1 VH
VL: B1 VL with F40L, A58G, L96F
B6: TSHB-1 (antibody, V domains shown)
VH: B1 VH with Q16E, N77S, P111Q
VL: B1 VL
B7: TSHB-3 (antibody, V domains shown)
VH: B1 VH with Q16E, N77S, D100E, P111Q
VL: B1 VL
B8: TSHB-8 (antibody, V domains shown)
VH: B1 VH with Q16E, N77S, I93M, P111Q
VL: B1 VL
B9: TSHB-6 (antibody, V domains shown)
VH: B1 VH with Q16E, T30N, N77S, P111Q
VL: B1 VL
B10: TSHB-13 (antibody, V domains shown)
VH: B1 VH
VL: B1 VL with F40L, A58G
B11: TSHB-16 (antibody, V domains shown)
VH: B1 VH
VL: B1 VL with S31A, F40L, A58G
B12: TSHB-14 (antibody, V domains shown)
VH: B1 VH
VL: B1 VL with F40L, A58G, L96W
B13: TSHB-20 (antibody, V domains shown)
VH: B1 VH
VL: B1 VL with D28N, F40L, A58G
B14: TSHB-17 (antibody, V domains shown)
VH: B1 VH
VL: B1 VL with N32L, F40L, A58G
B15: TSHB-5 (antibody, V domains shown)
VH: B1 VH with Q16E, S28Q, N77S, P111Q
VL: B1 VL
B16: TSHB-10 (antibody, V domains shown)
VH: B1 VH with Q16E, Q65K, N77S, P111Q
VL: B1 VL
B17: TSHB-25 (antibody, V domains shown)
VH: B2 VH
VL: B1 VL with A12G, K17R, F40L, A58G, I59V, T73S, G75A, T81A, G82E, Q106K
B18: TSHB-19 (antibody, V domains shown)
VH: B1 VH
VL: B1 VL with Y33W, F40L, A58G
B19: TSHB-4 (antibody, V domains shown)
VH: B1 VH with Q16E, S28E, N77S, P111Q
VL: B1 VL
B20: TSHB-9 (antibody, V domains shown)
VH: B1 VH with Q16E, I34T, N77S, P111Q
VL: B1 VL
B21: TSHB-22 (antibody, V domains shown)
VH: B1 VH
VL: B1 VL with A12G, K17R, F40L, A58G, I59V, T73S, G75A, T81A, G82E, Q106K
B22: TSHB-11 (antibody, V domains shown)
VH: B1 VH with Q16E, N77S, L99T, P111Q
VL: B1 VL

These binders were tested against T1, soluble TSHR protein (ELISA coat) (human, UniProt P16473 22-260, limits assumed) (assay: ELISA, plate coated with soluble TSHR, antibody at 100 nM, anti-human IgG Fc-HRP;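 further: binding of antibody variants to soluble TSHR coated at 2 µg/ml, with colour developed using TMB substrate and stopped with H2SO4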).
Protocol: (§1) Select TSHR antibody variants were tested for their ability to bind TSHR in an ELISA. Briefly, soluble TSHR protein was coated onto a plate at 2 μg/ml in phosphate buffered saline (PBS). The plate was washed with PBS and blocked with 4% skim milk in PBS.
(§2) Following wash steps with 1×PBS-Tween 0.05%, bound human IgG was detected with peroxidase conjugated goat anti-human IgG (Fc specific)-HRP at 1:5000 dilution and the ELISA was developed with TMB reagent followed by H2SO4.

Binder | ELISA (OD 450) at 100 nM
B1 | 0.43 OD 450
B2 | 0.475 OD 450
B3 | 0.495 OD 450
B4 | 0.491 OD 450
B5 | 0.517 OD 450
B6 | 0.506 OD 450
B7 | 0.407 OD 450
B8 | 0.551 OD 450
B9 | 0.493 OD 450
B10 | 0.495 OD 450
B11 | 0.487 OD 450
B12 | 0.522 OD 450
B13 | 0.465 OD 450
B14 | 0.402 OD 450
B15 | 0.498 OD 450
B16 | 0.496 OD 450
B17 | 0.409 OD 450
B18 | 0.47 OD 450
B19 | 0.453 OD 450
B20 | 0.452 OD 450
B21 | 0.493 OD 450
B22 | 0.22 OD 450

The binders below were run against T1, soluble TSHR protein (ELISA coat) (assay: ELISA, plate coated with soluble TSHR, antibody at 300 nM, anti-human IgG Fc-HRP;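 further: TSHR coated at 2 µg/ml, bound antibody revealed by goat anti-human IgG Fc HRP, color developed with TMB and stopped with H2SO4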).
Protocol: as §1, §2

Binder | ELISA (OD 450) at 300 nM
B1 | 0.461 OD 450
B2 | 0.52 OD 450
B3 | 0.55 OD 450
B4 | 0.555 OD 450
B5 | 0.569 OD 450
B6 | 0.641 OD 450
B7 | 0.467 OD 450
B8 | 0.586 OD 450
B9 | 0.548 OD 450
B10 | 0.561 OD 450
B11 | 0.566 OD 450
B12 | 0.572 OD 450
B13 | 0.54 OD 450
B14 | 0.475 OD 450
B15 | 0.578 OD 450
B16 | 0.557 OD 450
B17 | 0.367 OD 450
B18 | 0.547 OD 450
B19 | 0.542 OD 450
B20 | 0.478 OD 450
B21 | 0.53 OD 450
B22 | 0.289 OD 450

These binders were tested against T1, soluble TSHR protein (ELISA coat) (assay: ELISA, plate coated with soluble TSHR, antibody at 33.3 nM, anti-human IgG Fc-HRP;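 further: binding of antibody variants to plate-bound soluble TSHR (coated at 2 µg/ml), with bound human IgG detected by HRP conjugate and colour developed using TMB substrate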).
Protocol: as §1, §2

Binder | ELISA (OD 450) at 33.3 nM
B1 | 0.406 OD 450
B2 | 0.402 OD 450
B3 | 0.42 OD 450
B4 | 0.443 OD 450
B5 | 0.443 OD 450
B6 | 0.442 OD 450
B7 | 0.351 OD 450
B8 | 0.471 OD 450
B9 | 0.45 OD 450
B10 | 0.459 OD 450
B11 | 0.443 OD 450
B12 | 0.477 OD 450
B13 | 0.411 OD 450
B14 | 0.357 OD 450
B15 | 0.414 OD 450
B16 | 0.44 OD 450
B17 | 0.38 OD 450
B18 | 0.405 OD 450
B19 | 0.374 OD 450
B20 | 0.355 OD 450
B21 | 0.447 OD 450
B22 | 0.159 OD 450

What follows are binders tested against T2, Soluble TSHR (22-260) protein (human, UniProt P16473 22-260) (assay: SPR (Biacore T200, 25 C), antibody captured on anti-human Fc, soluble TSHR (22-260) as analyte, 1:1 fit;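 further: antibodies captured at 0.1 ug/mL on a CM5 sensor chip bearing anti-human Fc, with HBS-EP+ running buffer at pH 7.4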).
T2 construct: range 22-260
Protocol: Measurements were taken on a Biacore T200 at 25 C using a CM5 chip coated with anti-human Fc. Test antibodies were captured at 0.1 ug/mL in HBS-EP+ (10 mM HEPES pH7.4, 150 mM NaCl, 3 mM EDTA, 0.05% Tween 20) assay buffer. […] A 1:1 binding kinetics fit was used to calculate kinetic parameters.

Binder | Kd | koff | kon
B3 | 2.94 nM | 0.000368 s⁻¹ | 125000 M⁻¹ s⁻¹
B4 | 4.11 nM | 0.000477 s⁻¹ | 116000 M⁻¹ s⁻¹
B5 | 3.08 nM | 0.000372 s⁻¹ | 121000 M⁻¹ s⁻¹
B6 | 1.7 nM | 0.000273 s⁻¹ | 161000 M⁻¹ s⁻¹
B7 | 3.01 nM | 0.000533 s⁻¹ | 177000 M⁻¹ s⁻¹
B8 | 2.25 nM | 0.000344 s⁻¹ | 153000 M⁻¹ s⁻¹
B9 | 3.73 nM | 0.000532 s⁻¹ | 142000 M⁻¹ s⁻¹
B11 | 2.7 nM | 0.000385 s⁻¹ | 142000 M⁻¹ s⁻¹
B12 | 2.52 nM | 0.000352 s⁻¹ | 140000 M⁻¹ s⁻¹
B13 | 2.77 nM | 0.000301 s⁻¹ | 109000 M⁻¹ s⁻¹
B14 | 8.25 nM | 0.000407 s⁻¹ | 49400 M⁻¹ s⁻¹
B15 | 2.82 nM | 0.00044 s⁻¹ | 156000 M⁻¹ s⁻¹
B16 | 2.94 nM | 0.000338 s⁻¹ | 115000 M⁻¹ s⁻¹
B18 | 3.12 nM | 0.000369 s⁻¹ | 118000 M⁻¹ s⁻¹
B19 | 2.41 nM | 0.000362 s⁻¹ | 150000 M⁻¹ s⁻¹
B20 | 6.53 nM | 0.000676 s⁻¹ | 104000 M⁻¹ s⁻¹
B22 | 53.3 nM | 0.000643 s⁻¹ | 12100 M⁻¹ s⁻¹
